Data reported in patent US20120270784A1 (THERATECHNOLOGIES, published 2012).

T1: human GRF receptor (human, UniProt Q02643 23-423)
T1 sequence (looked up): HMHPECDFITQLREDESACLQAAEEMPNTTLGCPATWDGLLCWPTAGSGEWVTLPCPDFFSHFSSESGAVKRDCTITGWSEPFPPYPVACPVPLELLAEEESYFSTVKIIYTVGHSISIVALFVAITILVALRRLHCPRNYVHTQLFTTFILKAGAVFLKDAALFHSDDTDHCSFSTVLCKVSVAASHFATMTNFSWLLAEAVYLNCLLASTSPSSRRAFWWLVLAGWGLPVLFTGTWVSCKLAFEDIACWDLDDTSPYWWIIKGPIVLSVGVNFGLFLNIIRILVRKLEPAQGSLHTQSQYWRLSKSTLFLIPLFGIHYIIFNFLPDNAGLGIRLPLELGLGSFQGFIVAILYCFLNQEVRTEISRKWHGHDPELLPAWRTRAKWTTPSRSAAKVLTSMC

B1: Trans-3-hexenoyl-Y-A-D-A-I-F-T-D-S-Y-R-K-V-L-A-Q-L-O-A-R-Q-D-I-L-S-r-NH2 (SEQ ID NO: 24) (peptide)
peptide: YADAIFTDSYRKVLAQLXARQDILSX
HELM: PEPTIDE1{[CC/C=C/CC(=O)[*:2]].Y.A.D.A.I.F.T.D.S.Y.R.K.V.L.A.Q.L.[Orn].A.R.Q.D.I.L.S.[dR].[am]}$$$$V2.0
SMILES: CC/C=C/CC(=O)N[C@@H](Cc1ccc(O)cc1)C(=O)N[C@@H](C)C(=O)N[C@@H](CC(=O)O)C(=O)N[C@@H](C)C(=O)N[C@H](C(=O)N[C@@H](Cc1ccccc1)C(=O)N[C@H](C(=O)N[C@@H](CC(=O)O)C(=O)N[C@@H](CO)C(=O)N[C@@H](Cc1ccc(O)cc1)C(=O)N[C@@H](CCCNC(=N)N)C(=O)N[C@@H](CCCCN)C(=O)N[C@H](C(=O)N[C@@H](CC(C)C)C(=O)N[C@@H](C)C(=O)N[C@@H](CCC(N)=O)C(=O)N[C@@H](CC(C)C)C(=O)N[C@@H](CCCN)C(=O)N[C@@H](C)C(=O)N[C@@H](CCCNC(=N)N)C(=O)N[C@@H](CCC(N)=O)C(=O)N[C@@H](CC(=O)O)C(=O)N[C@H](C(=O)N[C@@H](CC(C)C)C(=O)N[C@@H](CO)C(=O)N[C@H](CCCNC(=N)N)C(N)=O)[C@@H](C)CC)C(C)C)[C@@H](C)O)[C@@H](C)CC
B2: Y-a-D-A-I-F-T-D-S-Y-R-K-V-L-A-Q-L-O-A-R-Q-D-I-L-S-r-NH2 (SEQ ID NO: 23) (peptide)
peptide: YXDAIFTDSYRKVLAQLXARQDILSX
HELM: PEPTIDE1{Y.[dA].D.A.I.F.T.D.S.Y.R.K.V.L.A.Q.L.[Orn].A.R.Q.D.I.L.S.[dR].[am]}$$$$V2.0; N-terminus assumed
SMILES: CC[C@H](C)[C@H](NC(=O)[C@H](C)NC(=O)[C@H](CC(=O)O)NC(=O)[C@@H](C)NC(=O)[C@@H](N)Cc1ccc(O)cc1)C(=O)N[C@@H](Cc1ccccc1)C(=O)N[C@H](C(=O)N[C@@H](CC(=O)O)C(=O)N[C@@H](CO)C(=O)N[C@@H](Cc1ccc(O)cc1)C(=O)N[C@@H](CCCNC(=N)N)C(=O)N[C@@H](CCCCN)C(=O)N[C@H](C(=O)N[C@@H](CC(C)C)C(=O)N[C@@H](C)C(=O)N[C@@H](CCC(N)=O)C(=O)N[C@@H](CC(C)C)C(=O)N[C@@H](CCCN)C(=O)N[C@@H](C)C(=O)N[C@@H](CCCNC(=N)N)C(=O)N[C@@H](CCC(N)=O)C(=O)N[C@@H](CC(=O)O)C(=O)N[C@H](C(=O)N[C@@H](CC(C)C)C(=O)N[C@@H](CO)C(=O)N[C@H](CCCNC(=N)N)C(N)=O)[C@@H](C)CC)C(C)C)[C@@H](C)O
B3: Y-a-DAIFTDSYRKVLAQLKARQDIL-aib-R-NH2 (SEQ ID NO: 22) (peptide)
peptide: YXDAIFTDSYRKVLAQLKARQDILXR
HELM: PEPTIDE1{Y.[dA].D.A.I.F.T.D.S.Y.R.K.V.L.A.Q.L.K.A.R.Q.D.I.L.[Aib].R.[am]}$$$$V2.0; N-terminus assumed
SMILES: CC[C@H](C)[C@H](NC(=O)[C@H](C)NC(=O)[C@H](CC(=O)O)NC(=O)[C@@H](C)NC(=O)[C@@H](N)Cc1ccc(O)cc1)C(=O)N[C@@H](Cc1ccccc1)C(=O)N[C@H](C(=O)N[C@@H](CC(=O)O)C(=O)N[C@@H](CO)C(=O)N[C@@H](Cc1ccc(O)cc1)C(=O)N[C@@H](CCCNC(=N)N)C(=O)N[C@@H](CCCCN)C(=O)N[C@H](C(=O)N[C@@H](CC(C)C)C(=O)N[C@@H](C)C(=O)N[C@@H](CCC(N)=O)C(=O)N[C@@H](CC(C)C)C(=O)N[C@@H](CCCCN)C(=O)N[C@@H](C)C(=O)N[C@@H](CCCNC(=N)N)C(=O)N[C@@H](CCC(N)=O)C(=O)N[C@@H](CC(=O)O)C(=O)N[C@H](C(=O)N[C@@H](CC(C)C)C(=O)NC(C)(C)C(=O)N[C@@H](CCCNC(=N)N)C(N)=O)[C@@H](C)CC)C(C)C)[C@@H](C)O

target: T1, human GRF receptor; experiment: cell-based or functional assay

EC50 as assessed by alkaline phosphatase (AP) induction [nM] | Binder
1.18 | B1
1.14 | B2
0.72 | B3
